Measurements published in the supplement of paper PMC9732359.
± gives the uncertainty stated by the source.

Experiment: protein stability index of a GFP-peptide fusion (yeast GPS) (PSI 1-4); higher = more stable; sorted into four equal gates, so the index is relative within each strain
Procedure, shortened: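 Plasmids isolated from each sorting gate were PCR-amplified and Illumina-sequenced, and barcodes assigned the reads to strains. The gates, four of equal size, were set by GFP/Cherry fluorescence ratio on mid-log cultures in leucine-free medium. These cultures were yeast carrying a pooled library of tiled 17-residue yeast protein peptides fused downstream of GFP on a plasmid that also expresses Cherry. The protein stability index is the sum of every gate's read frequency times its gate number.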

Row | Sequence | protein stability index (doa10∆) | protein stability index (pdr5∆) | protein stability index (san1∆) | protein stability index (ubr1∆)
1 | GTNNARLAQLLRQLASY [RPN1] | 3.17 ± 0.092 | 3.09 ± 0.083 | 3.21 ± 0.097 | 3.14 ± 0.096
2 | ARKETYSSYIYKVLKQT [HTB1] | 2.89 ± 0.058 | 2.43 ± 0.048 | 1.97 ± 0.072 | 2.47 ± 0.037
3 | LTPNEIKELEHLHDAVF [SWP82] | 2.95 ± 0.072 | 3.18 ± 0.075 | 3.13 ± 0.055 | 2.95 ± 0.052
4 | QLRKEIQLLDENVGTRL [MED11] |  | 3.09 ± 0.19 | 3.57 ± 0.11 | 
5 | RVNNPNVSLIKIEGVAT [RPL33A] | 2.54 ± 0.077 | 2.62 ± 0.062 | 2.38 ± 0.077 | 2.49 ± 0.048
6 | FKVRTNLNDKFGIYILT [MED1] | 1.76 ± 0.05 | 1.87 ± 0.046 | 1.98 ± 0.098 | 1.92 ± 0.042
7 | VNAPLPTPFKVDDNVDF [RPN2] | 2.91 ± 0.077 | 2.75 ± 0.051 | 2.74 ± 0.08 | 2.96 ± 0.086
8 | QTFGVDILAKLFSLEKP [SWI1] | 2.81 ± 0.063 | 2.52 ± 0.061 | 2.58 ± 0.058 | 2.51 ± 0.046
9 | PSTTLFNFGGKSDTVTS [YOR098C/NUP1] | 2.51 ± 0.065 | 2.32 ± 0.075 | 2.4 ± 0.073 | 2.92 ± 0.059
10 | EENSQGNILDFNLNLPP [REC8] | 3.06 ± 0.11 | 3.5 ± 0.14 | 3.18 ± 0.051 | 3.01 ± 0.079
11 | PEEATTIFSVMVEWLES [PRP8] | 1.76 ± 0.076 | 1.26 ± 0.093 | 1.28 ± 0.14 | 1.77 ± 0.13
12 | ENNTDSARKELEQKIHE [SMC1] | 2.33 ± 0.1 | 2 ± 0.094 | 2.79 ± 0.086 | 3.01 ± 0.1
13 | LHVLPTLNSRALSGLYY [SNM1] | 2.45 ± 0.052 | 2.45 ± 0.05 | 2.12 ± 0.065 | 2.31 ± 0.042
14 | VPVIVKARFVSKLAEEK [RPL28] | 2.71 ± 0.024 | 2.832 ± 0.024 | 2.786 ± 0.018 | 2.861 ± 0.02
15 | NCFFDVIVPQIVLDEVR [DIS3] | 1.62 ± 0.12 | 1.55 ± 0.17 |  | 1.47 ± 0.12
16 | NLNDAGLALQLFKKLKE [RPN2] |  | 2.69 ± 0.23 | 2.51 ± 0.24 | 3.19 ± 0.28
17 | GEIVSINQINEAHPTKV [RPL20A] | 3.17 ± 0.25 | 2.98 ± 0.17 | 3.06 ± 0.06 | 2.77 ± 0.092
18 | RELLKSQVEDFTRIFLP [SIR3] | 3.2 ± 0.053 | 3.1 ± 0.059 | 3.13 ± 0.053 | 3.33 ± 0.045
19 | TLTKISMLFKTSQKMTS [MCD1] | 1.92 ± 0.082 | 2.83 ± 0.16 | 2.45 ± 0.13 | 3.53 ± 0.19
20 | KNDNGGKMNNEVSTSTS [SWI3] | 3.29 ± 0.08 | 3.14 ± 0.1 | 3.06 ± 0.053 | 2.65 ± 0.075
21 | SLGIRPCLRKYEEFRDV [RRP43] | 3.27 ± 0.19 |  | 3.21 ± 0.18 | 2.96 ± 0.076
22 | KLSKSATESIKNRRRIH [SMC1] |  |  |  | 2.62 ± 0.25
23 | KCQELVTNIRRIIQDNI [RRP46] | 2.5 ± 0.15 | 2.81 ± 0.1 | 3.08 ± 0.25 | 1.94 ± 0.11
24 | FMEAQGAGIQIIMQADL [FAS2] | 2.36 ± 0.094 | 2.33 ± 0.12 | 2.08 ± 0.24 | 2.11 ± 0.083
25 | VKTTLVSLTQLRCVKYL [RPC82] | 1.4 ± 0.13 | 1.27 ± 0.079 | 1.16 ± 0.25 | 1.37 ± 0.11
26 | LAVTNLLIISCIIFITF [YML031W/NDC1] | 1.34 ± 0.034 | 1.53 ± 0.034 | 1.42 ± 0.061 | 1.55 ± 0.03
27 | MMENYQNISPVYSVDPL [PRP8] | 2.08 ± 0.049 | 1.88 ± 0.058 | 2.21 ± 0.064 | 1.74 ± 0.044
